# Measured values as given in publication PMC9063202 (2022).
# T1: IRISIN protein (human recombinant IRISIN) (human, UniProt Q8NAU1 1-191)
# T1 chain: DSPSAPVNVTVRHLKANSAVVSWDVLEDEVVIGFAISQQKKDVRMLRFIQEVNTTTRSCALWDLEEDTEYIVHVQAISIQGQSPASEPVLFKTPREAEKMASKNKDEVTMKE
# What was measured:
# [1] = target: T1, IRISIN protein (human recombinant …); test: BLI
# [2] = target: T1, IRISIN protein (human recombinant …); test: BLI
binder,measurement,setting,value
"TRPC3 protein (provided by Chen Lei Laboratory, Peking University) (natural protein) MEGSPSLRRMTVMREKGRRQAVRGPAFMFNDRGTSLTAEEERFLDAAEYGNIPVVRKMLEESKTLNVNCVDYMGQNALQLAVGNEHLEVTELLLKKENLARIGDALLLAISKGYVRIVEAILNHPGFAASKRLTLSPCEQELQDDDFYAYDEDGTRFSPDITPIILAAHCQKYEVVHMLLMKGARIERPHDYFCKCGDCMEKQRHDSFSHSRSRINAYKGLASPAYLSLSSEDPVLTALELSNELAKLANIEKEFKNDYRKLSMQCKDFVVGVLDLCRDSEEVEAILNGDLESAEPLEVHRHKASLSRVKLAIKYEVKKFVAHPNCQQQLLTIWYENLSGLREQTIAIKCLVVLVVALGLPFLAIGYWIAPCSRLGKILRSPFMKFVAHAASFIIFLGLLVFNASDRFEGITTLPNITVTDYPKQIFRVKTTQFTWTEMLIMVWVLGMMWSECKELWLEGPREYILQLWNVLDFGMLSIFIAAFTARFLAFLQATKAQQYVDSYVQESDLSEVTLPPEIQYFTYARDKWLPSDPQIISEGLYAIAVVLSFSRIAYILPANESFGPLQISLGRTVKDIFKFMVLFIMVFFAFMIGMFILYSYYLGAKVNAAFTTVEESFKTLFWSIFGLSEVTSVVLKYDHKFIENIGYVLYGIYNVTMVVVLLNMLIAMINSSYQEIEDDSDVEWKFARSKLWLSYFDDGKTLPPPFSLVPSPKSFVYFIMRIVNFPKCRRRRLQKDIEMGMGNSKSRLNLFTQSNSRVFESHSFNSILNQPTRYQQIMKRLIKRYVLKAQVDKENDEVNEGELKEIKQDISSLRYELLEDKSQATEELAILIHKLSEKLNPSMLRCE",Kd,[1],32.2 nM
same,koff,[2],0.00384 s⁻¹
